Assay results taken from patent publication US20240002497A1 (Merck Sharp & Dohme, published 2024).
Read-outs that look alike come from different tables or passages of the source. Values belong to the binder of their own block, whether it stands above or below them.

How the values were obtained:
rhNav1.7α + β1-β2-β3 [1] = molecular target: T1, rhNav1.7α + β1-β2-β3 (rhesus monkey); test: competition FACS IC50 with 50 µM human SA against without
T1 construct: also called rhNav1.7-beta1-beta2-beta3; rhNav1.7-β1-β2-β3

huNav1.7α + β1-β2-β3 [2] = molecular target: T2, huNav1.7α + β1-β2-β3 (human, UniProt Q15858 1-1988; A5A6L6 19-218; O60939 30-215; Q2KI11 23-215); test: as above
T2 construct: also called huNav1.7-beta1-beta2-beta3; huNav1.7-β1-β2-β3

huNav1.7α + β1 [3] = molecular target: T3, huNav1.7α + β1 (human); test: binding FACS, HEK
T3 construct: HEK293 cells; also called huNav1.7-beta1; huNav1.7-β1

huNav1.7α = molecular target: T4, huNav1.7α (human, UniProt Q15858 1-1988); test: binding FACS, HEK
T4 construct: HEK cells expressing the α subunit without β subunits; also called huNav1.7 (alpha-subunit); Human Nav1.7α

huNav1.7α + β1 [4] = molecular target: T3, huNav1.7α + β1; test: cell-based or functional assay
rhNav1.7α + β1-β2-β3 [5] = molecular target: T1, rhNav1.7α + β1-β2-β3; test: cell-based or functional assay
rhNav1.7α + β1-β2-β3 [6] = molecular target: T1, rhNav1.7α + β1-β2-β3; test: competition FACS vs EC25 of 275B05(N93R), CHO FlpIn, + 50 µM human SA
huNav1.7α + β1-β2-β3 [7] = molecular target: T2, huNav1.7α + β1-β2-β3; test: as above
huNav1.7α + β1 [8] = molecular target: T3, huNav1.7α + β1; test: cell-based or functional assay; remark: listed apart in the source
rhNav1.7α + β1-β2-β3 [9] = molecular target: T1, rhNav1.7α + β1-β2-β3; test: cell-based or functional assay; remark: listed apart in the source
rhNav1.7α + β1-β2-β3 [10] = molecular target: T1, rhNav1.7α + β1-β2-β3; test: competition FACS vs EC25 of 275B05(N93R), CHO FlpIn
huNav1.7α + β1-β2-β3 [11] = molecular target: T2, huNav1.7α + β1-β2-β3; test: as above
rhNav1.7α+β1-β2-β3 = molecular target: T5, rhNav1.7α+β1-β2-β3 (rhesus monkey α subunit with human β …); test: binding FACS
T5 construct: P2A cleaves it into α, β1, β2, β3; also called rhNav1.7-beta1-beta2-beta3

huNav1.7α+β1-β2-β3 = molecular target: T6, huNav1.7α+β1-β2-β3 (human, UniProt Q15858 1-1988; Q07699 19-218; O60939 30-215; Q9NY72 23-215); test: binding FACS
T6 construct: 5N11S variant; also called huNav1.7-beta1-beta2-beta3; huNav1.7α+Navβ1-Navβ2-Navβ3

rhNav1.7α + β1-β2-β3 [12] = molecular target: T1, rhNav1.7α + β1-β2-β3; test: competition FACS vs EC25 of 275B05(N93R), CHO FlpIn; remark: listed apart in the source
huNav1.7α + β1-β2-β3 [13] = molecular target: T2, huNav1.7α + β1-β2-β3; test: as above; remark: listed apart in the source
huNav1.7α + β1 [14] = molecular target: T3, huNav1.7α + β1; test: cell-based or functional assay; remark: listed apart in the source
rhNav1.7α + β1-β2-β3 [15] = molecular target: T1, rhNav1.7α + β1-β2-β3; test: cell-based or functional assay; remark: listed apart in the source

- Human SA ratio (rhNav1.7α + β1-β2-β3 [1]): 1
- Human SA ratio (huNav1.7α + β1-β2-β3 [2]): 1
- EC50 (huNav1.7α + β1 [3]): 4.2 nM
- EC50 (huNav1.7α): 4.9 nM
- Qpatch IC50 [M], HEK cells (huNav1.7α + β1 [4]): 1.8e-08 M
- Qpatch IC50 [M], HEK cells (rhNav1.7α + β1-β2-β3 [5]): 6e-09 M
- IC50 (rhNav1.7α + β1-β2-β3 [6]): 16 nM
- IC50 (huNav1.7α + β1-β2-β3 [7]): 39 nM
- QPatch electrophysiology IC50 [M], HEK cells (huNav1.7α + β1 [8]): 1.8e-08 M
- QPatch electrophysiology IC50 [M], HEK cells (rhNav1.7α + β1-β2-β3 [9]): 6e-09 M
- IC50 (rhNav1.7α + β1-β2-β3 [10]): 14 nM
- IC50 (huNav1.7α + β1-β2-β3 [11]): 37 nM
B1: F010301656 (VHH)
VHH: EVQLVESGGGLAQPGGSLRLSCAASGPVFNINRMAWYRRAPGKQRELVAYVTPTGDISYTDSVKGRFTISRDGSKRWSLQMNSLTPEDTAVYYCRALLQPDSYSNTRTYWGQGTLVTVSS
notes: also called F0103387G04(K33R, S50Y, S56D, N93R)-FLAG3-HIS6

- fold improved binding vs F0103387G04 (rhNav1.7α+β1-β2-β3): 20 fold
- fold improved binding vs F0103387G04 (huNav1.7α+β1-β2-β3): 2 fold
B2: F010302383 (VHH)
VHH: EVQLVESGGGVVQPGGSLRLSCAASGPVFNINRMAWYRQAPGKQRELVAYVTPTGDISYADSVKGRFTISRGGSKRVYLQMNSLRPEDTALYYCRALLQPSSYSGTRTYWGQGTLVTVSS
notes: also called F0103387G04(L11V, A12V, K33R, R39Q, S50Y, S56D, T60A, D72G, W78V, S79Y, T83R, V89L, N93R, D99S, N100cG)+FLAG3-HIS6

- IC50 (rhNav1.7α + β1-β2-β3 [12]): 16 nM
- IC50 (huNav1.7α + β1-β2-β3 [13]): 30 nM
- QPatch electrophysiology IC50 [M], HEK cells (huNav1.7α + β1 [14]): 2.1e-08 M
- QPatch electrophysiology IC50 [M], HEK cells (rhNav1.7α + β1-β2-β3 [15]): 1.8e-08 M
B3: F010301452 (VHH)
VHH: EVQLVESGGGLVQPGGSLRLSCAASGPVFNINSMAWYRRAPGKQRELVAYSTPGWDWNYADSVKGRFTISRDNAKRVYLQMNSLTPEDTAVYYCRWLLQPSIYDISRTYWGQGTLVTVSS
notes: Tagless version of F010300659 by its description; also called F0103275B05(S27P, I28V, S50Y, N53P, G55W, S56D, T57W, N93R, A94W)
